Measured values published in patent US20100240066A1 (MCGILL UNIVERSITY, published 2010).
Where no end group is shown, it is not given here.

T1: E-cadherin/Fc chimeric protein (human, UniProt P12830 155-707)
T1 construct: range 155-707; Bought from R&D Systems; also called E-cad/Fc; human E-cadherin/Fc chimeric protein; not shown: Fc region of human IgG1
T1 sequence (looked up): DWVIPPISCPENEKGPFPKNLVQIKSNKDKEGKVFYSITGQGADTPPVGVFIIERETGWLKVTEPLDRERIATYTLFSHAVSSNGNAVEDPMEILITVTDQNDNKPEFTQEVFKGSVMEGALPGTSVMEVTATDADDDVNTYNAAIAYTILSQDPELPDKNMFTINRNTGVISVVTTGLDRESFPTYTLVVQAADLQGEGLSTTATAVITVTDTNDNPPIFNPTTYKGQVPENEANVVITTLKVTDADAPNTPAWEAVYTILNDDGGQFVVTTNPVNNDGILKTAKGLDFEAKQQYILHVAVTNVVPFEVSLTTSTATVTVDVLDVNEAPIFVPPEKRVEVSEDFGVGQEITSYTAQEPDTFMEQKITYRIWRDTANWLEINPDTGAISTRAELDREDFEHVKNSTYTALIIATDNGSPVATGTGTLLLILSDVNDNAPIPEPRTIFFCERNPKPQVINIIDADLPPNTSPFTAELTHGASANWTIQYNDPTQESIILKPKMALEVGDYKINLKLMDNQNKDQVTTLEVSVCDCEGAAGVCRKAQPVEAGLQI

T2: VE-cadherin/Fc chimeric protein (UniProt P33151 48-593)
T2 construct: Bought from R&D Systems; also called vascular endothelial (VE)-cadherin/Fc chimeric protein; not shown: Fc part not described
T2 sequence (looked up): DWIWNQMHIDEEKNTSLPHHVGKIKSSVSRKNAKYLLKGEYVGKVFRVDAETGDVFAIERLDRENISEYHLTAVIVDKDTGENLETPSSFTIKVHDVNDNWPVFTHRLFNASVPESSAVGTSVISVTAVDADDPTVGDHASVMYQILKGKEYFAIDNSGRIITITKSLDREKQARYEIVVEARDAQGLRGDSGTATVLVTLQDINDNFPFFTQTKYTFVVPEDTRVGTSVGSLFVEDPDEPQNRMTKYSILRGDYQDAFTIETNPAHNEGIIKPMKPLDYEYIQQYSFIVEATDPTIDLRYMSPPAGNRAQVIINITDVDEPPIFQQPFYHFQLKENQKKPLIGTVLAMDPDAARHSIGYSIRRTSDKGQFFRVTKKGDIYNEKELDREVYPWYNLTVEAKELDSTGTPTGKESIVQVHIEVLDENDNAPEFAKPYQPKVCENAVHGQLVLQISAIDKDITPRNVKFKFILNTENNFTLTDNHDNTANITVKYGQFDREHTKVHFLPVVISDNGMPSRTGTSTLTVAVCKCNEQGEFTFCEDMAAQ

T3: N-cadherin/Fc chimeric protein (human, UniProt P19022 160-724)
T3 construct: range 160-724; Bought from R&D Systems; also called N-cad/Fc; human N-cadherin/Fc chimeric protein; not shown: Fc region of human IgG1
T3 sequence (looked up): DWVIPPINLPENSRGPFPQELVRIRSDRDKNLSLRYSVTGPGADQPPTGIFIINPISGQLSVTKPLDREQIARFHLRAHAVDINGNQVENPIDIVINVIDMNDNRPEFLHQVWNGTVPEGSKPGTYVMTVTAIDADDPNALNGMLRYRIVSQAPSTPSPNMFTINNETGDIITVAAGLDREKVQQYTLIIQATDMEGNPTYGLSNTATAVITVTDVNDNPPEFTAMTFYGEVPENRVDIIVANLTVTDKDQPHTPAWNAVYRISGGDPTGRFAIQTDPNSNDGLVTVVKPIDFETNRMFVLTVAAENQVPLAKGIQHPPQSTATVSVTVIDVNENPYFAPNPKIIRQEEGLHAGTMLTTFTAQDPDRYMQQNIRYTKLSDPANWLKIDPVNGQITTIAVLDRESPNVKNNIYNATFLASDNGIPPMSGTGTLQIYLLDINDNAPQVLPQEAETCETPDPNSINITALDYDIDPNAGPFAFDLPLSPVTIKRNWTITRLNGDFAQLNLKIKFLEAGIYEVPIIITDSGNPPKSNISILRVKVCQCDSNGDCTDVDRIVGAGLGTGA


Assays:
[1] = biological target: T1, E-cadherin/Fc chimeric protein; assay: summary table, column Peptide Binds to E-cad/Fc; assay not named
[2] = biological target: T2, VE-cadherin/Fc chimeric protein; assay: surface plasmon resonance (Biacore), chimera captured by anti-human IgG
Procedure: The binding of representative peptide modulating agents to either N- or VE-cadherin/Fc chimeric proteins was assessed using a BIAcore X™ Biosensor (Pharmacia Ltd., Sweden). Goat anti-human IgG recognizing N- and VE-cadherin/Fc chimeric proteins (R&D Systems, Minneapolis, Minn.) was immobilized on a CM5 sensor chip (Biacore S51) using standard amine-coupling method at 25° C. HBS-P buffer (10 mM HEPES, 0.15 M NaCl, 0.005% p20, pH 7.4) was used as the running buffer. The carboxymethyl dextran surface was activated with a 7 min injection of a 1:1 ratio of 0.4 M EDC and 0.1 M NHS. The goat anti-human IgG (Caltag Lab.) was coupled to the surface with a 7 min injection diluted in 10 mM sodium acetate, pH 5.0 to a final concentration 80 ug/ml. Remaining activated groups were blocked with a 7 min injection of 1 M ethanolamine, pH 8.5. N- and VE-cadherin/Fc chimeric proteins were dissolved in buffer containing 50 mM Tris HCl, 150 mM NaCl, and 1.2 mM CaCl₂ pH 7.5 to a concentration of 0.2 μM and captured on spots 1 and 2 at a flow rate of 30 μl/min for 30 min with resulting density 927 RU for N-cadherin/Fc chimeric protein and 1008 RU for VE-cadherin/Fc chimeric protein. […]
(§1) The binding of the linear peptide H-[…]-NH₂ (SEQ ID NO: 16) to N- and VE-cadherin/Fc chimeric proteins was analyzed by surface plasma resonance.

[3] = biological target: T3, N-cadherin/Fc chimeric protein; assay: surface plasmon resonance (Biacore), N-cadherin/Fc captured by anti-human IgG, peptide as analyte, 1.2 mM CaCl2, 25 C
Procedure: The binding of representative peptide modulating agents to either N- or VE-cadherin/Fc chimeric proteins was assessed using a BIAcore X™ Biosensor (Pharmacia Ltd., Sweden). Goat anti-human IgG recognizing N- and VE-cadherin/Fc chimeric proteins (R&D Systems, Minneapolis, Minn.) was immobilized on a CM5 sensor chip (Biacore S51) using standard amine-coupling method at 25° C. HBS-P buffer (10 mM HEPES, 0.15 M NaCl, 0.005% p20, pH 7.4) was used as the running buffer. The carboxymethyl dextran surface was activated with a 7 min injection of a 1:1 ratio of 0.4 M EDC and 0.1 M NHS. The goat anti-human IgG (Caltag Lab.) was coupled to the surface with a 7 min injection diluted in 10 mM sodium acetate, pH 5.0 to a final concentration 80 ug/ml. Remaining activated groups were blocked with a 7 min injection of 1 M ethanolamine, pH 8.5. N- and VE-cadherin/Fc chimeric proteins were dissolved in buffer containing 50 mM Tris HCl, 150 mM NaCl, and 1.2 mM CaCl₂ pH 7.5 to a concentration of 0.2 μM and captured on spots 1 and 2 at a flow rate of 30 μl/min for 30 min with resulting density 927 RU for N-cadherin/Fc chimeric protein and 1008 RU for VE-cadherin/Fc chimeric protein.
The linear peptide H-[…]-NH₂ (SEQ ID NO: 16) and the control linear peptide H-[…]-NH₂ (SEQ ID NO: 58) were passed over surfaces coated with captured N- and VE-cadherin/Fc chimeric proteins in running buffer containing 50 mM Tris-HCl, 150 mM NaCl, and 1.2 mM CaCl₂, pH 7.5 at concentrations ranging from 100-1.56 uM. The experiment was performed at a flow rate 90 ul/min at 25° C. […] All responses were referenced for reference surface and blank injections of running buffer.
as §1

[4] = biological target: T3, N-cadherin/Fc chimeric protein; assay: phage ELISA, 1.2 mM calcium
Procedure: (§2) The binding of each clone to the cadherin/Fc chimeric proteins was confirmed by ELISA. Wells of ProBind microtiter plates (Falcon) were coated with either N-cadherin/Fc or E-cadherin/Fc chimeric protein (100 ng/well) or human IgG1 (which contains the Fc fragment) (100 ng/well). After blocking the nonspecific sites with TBS containing 3% BSA and 1.2 mM CaCl₂ for 1 h at 37° C., phage clones (10⁹ pfu) diluted in TBST containing 3% BSA and 1.2 mM CaCl₂ (100 μl/well). Non-coated wells were also used to exclude any phage that bound to the plastic surface. After 1 h incubation at room temperature, wells were washed 3 times with TBST containing 3% BSA and 1.2 mM CaCl₂. M13 phage without any insert were used to control the non-specific binding of the phage itself to the target. Monoclonal anti-M13 antibody conjugated to horseradish peroxidase (Amersham Biosciences, Piscataway, N.J.) was diluted in TBST containing 3% BSA and 1.2 mM CaCl₂ (1:2,000) and added to each well (100 μl/well). After 1 h incubation at room temperature, wells were washed three times with TBST containing 3% BSA and 1.2 mM CaCl₂ and once with TBS containing 1.2 mM CaCl₂. Horseradish peroxidase substrate, TMB (Sigma), was added to each well (100 μl/well and after color development the reaction was stopped by addition of 100 μl 0.5 M sulphuric acid to each well. The intensity of the color was measured at 450 nm.

[5] = biological target: T1, E-cadherin/Fc chimeric protein; assay: phage ELISA, in the absence or presence of calcium
Procedure: (§3) The phage clones shown to bind to the N-cadherin/Fc chimeric protein by ELISA were also evaluated for their ability to bind to E-cadherin/Fc and VE-cadherin/Fc chimeric proteins. The phage clones shown to bind to the E-cadherin/Fc chimeric protein by ELISA were also evaluated for their ability to bind to N-cadherin/Fc and VE-cadherin/Fc chimeric proteins. The same ELISA protocol described in the previous section was used to perform this evaluation with the exception that the wells were coated with either 100 ng N-cadherin/Fc, E-cadherin/Fc or VE-cadherin/Fc chimeric protein (R&D Systems, Minneapolis, Minn.).

[6] = biological target: T2, VE-cadherin/Fc chimeric protein; assay: phage ELISA, in the absence or presence of calcium
Procedure: as §3

[7] = biological target: T1, E-cadherin/Fc chimeric protein; assay: phage ELISA
Procedure: as §3

[8] = biological target: T2, VE-cadherin/Fc chimeric protein; assay: phage ELISA
Procedure: as §3

[9] = biological target: T3, N-cadherin/Fc chimeric protein; assay: phage ELISA, 1.2 mM calcium; remark: listed apart in the source
Procedure: as §2
An ELISA was performed in the presence of either 1.2 mM calcium or 2 mM EDTA. […] The signal obtained in the presence of EDTA was lower than in the presence of calcium.

[10] = biological target: T3, N-cadherin/Fc chimeric protein; assay: summary table, column Peptide Binds to N-cad/Fc; assay not named

| Binder | binding result [7] | binding result [8] | binding result [9] | further results |
| --- | --- | --- | --- | --- |
| H-SWTLYTPSGQSK-NH2 (Synthetic linear peptide) [H-SWTLYTPSGQSK-NH2] | – | – | – | binding result [1]: no binding; binding result [2]: no binding (tested: 100-1.56 uM); Kd [3]: 66 µM; koff [3]: 0.407 s⁻¹; kon [3]: 6100 M⁻¹ s⁻¹ |
| WYVCVGAHC (not fully specified; cysteine pairing not given here; also: displayed on M13 phage pIII, whole phage in the assay) [phage clone NoCa1] | – | – | – | binding result [4]: binds; binding result [5]: no binding (tested: 10^9 pfu); binding result [6]: no binding (tested: 10^9 pfu) |
| WQVCVGAHC (not fully specified; cysteine pairing not given here; also: displayed on M13 phage pIII, whole phage in the assay) [phage clone NoCa11] | – | – | – | binding result [4]: binds; binding result [5]: no binding (tested: 10^9 pfu); binding result [6]: no binding (tested: 10^9 pfu) |
| NWFIDFPVYPPL (whole phage in the assay) [phage clone Nc 12-a1] | no binding (tested: 10^9 pfu) | no binding (tested: 10^9 pfu) | binds | – |
| KWELTYFANSFP (whole phage in the assay) [phage clone Nc 12-a3] | no binding (tested: 10^9 pfu) | no binding (tested: 10^9 pfu) | binds | – |
| EWMIHYDSALTS (not fully specified, whole phage in the assay) [phage clone Nc 12-a6] | binds | no binding (tested: 10^9 pfu) | binds | – |
| AWQVHYSYVASS (whole phage in the assay) [phage clone Nc 12-a7] | binds | no binding (tested: 10^9 pfu) | binds | – |
| SWLAVWPATGAS (whole phage in the assay) [phage clone Nc 12-a10] | binds | no binding (tested: 10^9 pfu) | binds | – |
| H-SRTLYTPSGQSK-NH2 [H-SRTLYTPSGQSK-NH2] | – | – | – | binding result [10]: no binding; binding result [2]: no binding (tested: 100-1.56 uM) |
